Here are results for six molecules from publication PMC3166965.

T1 sequence (P08579 whole entry): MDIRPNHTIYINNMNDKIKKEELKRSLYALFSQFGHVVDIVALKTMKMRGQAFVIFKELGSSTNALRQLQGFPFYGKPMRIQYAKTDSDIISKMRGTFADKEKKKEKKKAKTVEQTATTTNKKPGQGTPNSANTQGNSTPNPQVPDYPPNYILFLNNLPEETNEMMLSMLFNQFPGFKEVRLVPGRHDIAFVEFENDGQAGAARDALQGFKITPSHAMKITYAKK

The first data set has as its target T1, U2B" (Homo sapiens, UniProt P08579 1-225). Nature of the data set: filter binding.
By Kd is commonly meant a measure of binding affinity in units of concentration. Low readings indicate a tighter complex, high ones a looser complex. For GGGCCCGGUAUUGCAGUACCUCCGGGUCC (structured_RNA) [hSLIV 9 bp stem], binding was characterised by a dissociation constant (Kd) of 1 nM. Same read-out and setting: as for GGCCGUAUUGCAGUACCUCGGCC (structured_RNA, 2-aminopurine at position 15 (loop A9), written as A) [hSLIV 2AP9], the figure is 2 nM. GGACCUAUUGCAGUACCUGGUCC (structured_RNA) [hSLIV 6 bp stem] had a Kd of 2 nM. The same measure, in the same setting: as for GGGCCCGGUAUUGCAGUACCGCCGGGUCC (structured_RNA) [dSLIV], the figure is 2 nM. Still for that read-out and setting: as for GGGCUGCCAUUGCACCUCGGCGGUCC (structured_RNA) [hSLII], the figure is 2.1 nM.

The next data set deals with T1, U2B". Briefly: filter binding. The source holds these as a separate data set.
With GGCCGUAUUGCAGUACCGCGGCC (structured_RNA, 2-aminopurine at position 15 (loop A9), written as A) [dSLIV 2AP9], the binding result is on record as “binds”.
